Results taken from patent publication US20220324954A1.

Assays:
human VEGFA (human) [1] = target: human VEGFA (human) (UniProt P15692); test: blocking ELISA: VEGFR2 coated, biotinylated VEGFA with antibody dilutions (FIG. 6)
human VEGFA (human) [2] = target: human VEGFA (human) (UniProt P15692); test: cell-based or functional assay

Sequence of human VEGFA (human) (P15692 other isoform, or with tags, fused parts or gaps limits assumed): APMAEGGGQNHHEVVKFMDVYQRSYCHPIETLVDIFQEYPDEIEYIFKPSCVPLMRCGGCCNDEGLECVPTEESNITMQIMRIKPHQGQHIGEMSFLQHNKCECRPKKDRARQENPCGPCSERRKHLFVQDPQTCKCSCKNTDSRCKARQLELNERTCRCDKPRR
Sequence of Conbercept (Fc fusion) (chain): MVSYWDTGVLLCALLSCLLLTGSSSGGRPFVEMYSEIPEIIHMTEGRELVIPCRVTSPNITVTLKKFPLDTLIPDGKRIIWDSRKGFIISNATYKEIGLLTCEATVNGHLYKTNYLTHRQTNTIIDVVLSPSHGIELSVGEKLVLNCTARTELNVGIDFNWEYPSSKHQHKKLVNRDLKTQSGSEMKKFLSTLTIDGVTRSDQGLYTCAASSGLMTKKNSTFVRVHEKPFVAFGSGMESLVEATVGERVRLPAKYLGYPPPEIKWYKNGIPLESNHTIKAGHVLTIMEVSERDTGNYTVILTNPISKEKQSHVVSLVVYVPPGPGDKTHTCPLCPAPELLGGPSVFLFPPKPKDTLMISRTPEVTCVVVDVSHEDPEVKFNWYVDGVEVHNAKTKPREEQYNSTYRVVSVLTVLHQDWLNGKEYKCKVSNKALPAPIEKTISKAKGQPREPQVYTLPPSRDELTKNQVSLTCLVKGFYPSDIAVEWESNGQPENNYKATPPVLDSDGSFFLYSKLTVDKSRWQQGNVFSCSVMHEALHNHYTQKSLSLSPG
Sequence of Eylea (Aflibercept) (Fc fusion) (chain): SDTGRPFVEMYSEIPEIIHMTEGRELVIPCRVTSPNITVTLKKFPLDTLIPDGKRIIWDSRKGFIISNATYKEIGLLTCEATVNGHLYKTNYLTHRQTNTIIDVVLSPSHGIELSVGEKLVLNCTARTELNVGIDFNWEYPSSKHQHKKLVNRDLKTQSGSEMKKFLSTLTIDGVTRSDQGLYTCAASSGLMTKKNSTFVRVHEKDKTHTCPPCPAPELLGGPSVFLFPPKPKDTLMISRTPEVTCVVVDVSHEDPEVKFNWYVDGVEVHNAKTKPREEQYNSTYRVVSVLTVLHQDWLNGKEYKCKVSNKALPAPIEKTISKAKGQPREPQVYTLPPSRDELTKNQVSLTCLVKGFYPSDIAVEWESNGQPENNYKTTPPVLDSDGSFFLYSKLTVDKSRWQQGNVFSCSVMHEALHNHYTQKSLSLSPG

| IC50 (human VEGFA (human) [1]) [µg/mL] | inhibitory effect on HUVEC cell proliferation, IC50 (human VEGFA (human) [2]) [µg/mL] | Substance |
| --- | --- | --- |
| 0.088 | 0.13 | Conbercept (Fc fusion) |
| 0.085 | 0.066 | Eylea (Aflibercept) (Fc fusion) |
